Earlier results in publication PMC7072864.

Target: EAG1 CNBHD CNBHD (Mus musculus) (UniProt Q60603)

Kd: 13 µM
Substance: EAG1 PAS domain PAS (from UniProt Q60603)
